Results taken from PMC5415192, “Zebrafish GDNF and its co-receptor GFRα1 activate the human RET receptor and promote the survival of dopaminergic neurons in vitro” (PLoS ONE, 2017).

B1: Zebrafish (Danio rerio) RET extracellular domain (residues 22-626) (domain or fragment, UniProt A8E7C6 22-626, looked up)
chain: GLYFPQRLYTENIYVGQQQGSPLLQVISMREFPTERPYFFLCSHRDAFTSWFHIDEASGVLYLNKTLEWSDFSSLRSGSVRSPKDLTLKVGVSSTPPMKVMCTILPTVEVKLSFINDTAPSCGQVELSTLCFPEKISNPHITENREPGALRQLRRFTHMSICPNYTISYGVVAGSSVPFAVDDSTSELVVTAQVDREEKEVYHLDIVCMVRTERNLEEVFRSLHVNIYDEDDNSPYVNGTDTEDVLVEFDRSEGTVFGTLFVYDRDTTPVYPTNQVQNKLVGTLMTNDSWIKNNFAIEHKFREEKAIFGNVRGTVHEYKLKLSQNLSVTEQRSFLLGYLVNDTTFPGPEGTVLLHFNVTVLPVPIRFSNVTYSFTVSQKATTYSQIGKVCVENCQKFKGIDVTYQLEIVDRNITAEAQSCYWAVSLAQNPNDNTGVLYVNDTKVLRRPECQELEYVVIAQEQQNKLQAKTQLTVSFQGEADSLKTDEPRFPACAEKRQRGDCEATRGLGAPTGRCQWRQGRDKGISKRYSTCSPNLGTCPDGYCDAIESKNISICPQDCSSEAIIGGYERDLYGIKAGHGTCYCFEGKCFCERDEPEDDICNDMC
notes: RET, Danio rerio, UniProt A8E7C6, extracellular domain, residues 22-626; cloned from zRET-CS2-MT+; The protein is glycosylated; also called zRET^ecd; zRET; source: Hi5 insect cells, baculovirus, secreted

Experiments:
[1] = molecular target: the molecule itself; experiment: SEC + native gel or EMSA; affinity-purified zRET^ecd separated by SEC into two peaks; fractions and pools run on BN-PAGE and SDS-PAGE
[2] = molecular target: B1; experiment: BLI; BLItz; His-tagged zGFRα1 (58 μM, 4 μl) immobilised on Ni-NTA tips; pre-mixed zRET^ecd and zGDNF at 0.3-44 μM; 20 mM HEPES pH 8, 150 mM NaCl, 1 mM CaCl2; plateau values fitted as Scatchard plots; triplicate; settings: both partners purified
[3] = molecular target: the molecule itself; experiment: SDS-PAGE with and without DTT; purified zGDNF on a Coomassie-stained gel, with 1 mM DTT or without

B1
stoichiometry N [1]: 2

B2: Complex of His-tagged zebrafish GFRα1 (residues 31-351) and zebrafish GDNF (complex, zebrafish (Danio rerio))
chain 1: DCVKANELCLKEPGCSSKYRTMRQCVAGRESNFSMATGMEAKDECRLVLDALKQSPLYNCRCKRGMKKEKNCLRIYWGIYQHLQGNDLLEDSPYEPVNSRLSDIFRLAPIYSGEPALAKENNCLNAAKACNLNDTCKKYRSAYISPCTSRVSTAEVCNKRKCHKALRQFFDKVPPKHSYGMLYCSCPLGDQSACSERRRQTIVPACSYEDKERPNCLTLQVSCKTNYICRSRLADFFTNCQPEPLSLSGCLKENYADCLLSYSGLIGTVMTPNYLRSPKISVSPFCDCSSSGNSKEECDRFTEFFTDNACLRNAIQAFGNG
chain 2: SSDVEPQMKRDRVRQKAAANTEKSGGRGRGERKRSRGRARSRDDRVKGQGRGCLLKEIHLNVTDLDLGYRTKEELIFRYCSGPCHDAETNYDKILNNLTHNKKLDKDTPSRTCCRPIAFDDDISFLDDSLEYHTLKKHSAKKCACV
notes: GDNF family receptor alpha-1, Danio rerio, UniProt Q98TT9, residues 31-351, lacking the GPI-anchor; Glial cell line-derived neurotrophic factor, Danio rerio, UniProt Q98TU0, mature GDNF, residues 90-236; as m6; In the BLI experiment His-tagged zGFRα1 was held on the Ni-NTA tip, and zGDNF was supplied pre-mixed with zRET^ecd; The stoichiometry of the complex was not measured here; also called …
Kd [2]: 5.9 ± 1.5 µM

B3: Zebrafish (Danio rerio) mature GDNF (residues 90-236) (ligand, UniProt Q98TU0 90-235, looked up)
chain: SSDVEPQMKRDRVRQKAAANTEKSGGRGRGERKRSRGRARSRDDRVKGQGRGCLLKEIHLNVTDLDLGYRTKEELIFRYCSGPCHDAETNYDKILNNLTHNKKLDKDTPSRTCCRPIAFDDDISFLDDSLEYHTLKKHSAKKCACV
notes: Glial cell line-derived neurotrophic factor, Danio rerio, UniProt Q98TU0, mature GDNF, residues 90-236; 'zGDNF' is the construct in the original pK503.9 vector (Flag-tag only); Whether its Flag tag was removed is not clear; It appears as a mixture of a DTT-sensitive dimer and monomer, and it is glycosylated; also called zGDNF; zebrafish GDNF; source: Hi5 insect cells, baculovirus, secreted; …
stoichiometry N [3]: 2
